US20250326817A1 (LA JOLLA INSTITUTE FOR IMMUNOLOGY, published 2025)

What was measured:
[1] = biological target: T1, mouse CD160 residues I30-H154 with C-terminal …, refolded from E. coli inclusion bodies (mouse, UniProt O88875 30-154, biotin (mCD160-biotin in the cell staining assay; site not stated)); assay: Octet BLI, mHVEM-hIgG1 immobilised (text says surface plasmon resonance)
T1 construct: range 30-154; also called mCD160; mCD160-biotin
T1 sequence: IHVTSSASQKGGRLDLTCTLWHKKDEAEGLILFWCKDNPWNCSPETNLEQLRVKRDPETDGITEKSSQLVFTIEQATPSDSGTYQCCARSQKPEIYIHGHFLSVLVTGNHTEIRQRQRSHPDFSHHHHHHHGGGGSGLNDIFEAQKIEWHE
Description: (§1) The results were exported and then analyzed using Prism 5 (GraphPad Software). Final response curves were generated after subtracting the responses of the control groups.

[2] = biological target: T2, single chain homotrimeric mouse LIGHT extracellular domain (G73-V239), N-terminal HHHHHHGG, joined by two … (mouse, UniProt Q9QYH9 73-239); assay: as above
T2 construct: Soluble analyte of the Octet assay; from Expi293 cells; also called mLIGHT
T2 sequence: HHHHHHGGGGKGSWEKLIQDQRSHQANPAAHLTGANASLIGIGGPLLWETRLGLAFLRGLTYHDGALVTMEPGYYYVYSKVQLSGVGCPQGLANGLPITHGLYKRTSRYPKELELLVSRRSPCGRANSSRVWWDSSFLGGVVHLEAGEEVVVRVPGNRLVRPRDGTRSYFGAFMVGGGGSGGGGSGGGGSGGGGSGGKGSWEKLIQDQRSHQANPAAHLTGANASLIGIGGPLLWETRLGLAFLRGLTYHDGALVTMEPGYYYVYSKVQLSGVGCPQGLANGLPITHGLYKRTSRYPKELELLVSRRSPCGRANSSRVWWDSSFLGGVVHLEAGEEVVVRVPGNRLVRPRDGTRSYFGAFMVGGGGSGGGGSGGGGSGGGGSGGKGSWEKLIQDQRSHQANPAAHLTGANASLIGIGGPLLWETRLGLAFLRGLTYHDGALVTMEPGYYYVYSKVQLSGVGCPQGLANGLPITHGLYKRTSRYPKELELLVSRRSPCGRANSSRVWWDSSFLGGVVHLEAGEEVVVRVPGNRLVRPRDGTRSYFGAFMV
Description: as §1

[3] = biological target: T3, mouse BTLA, soluble protein (analyte of the Octet assay) (mouse, UniProt Q7TSA3 30-183, limits assumed); assay: as above
T3 construct: The construct is not described; also called mBTLA; mBTLA-penta-His-tag
T3 sequence (looked up): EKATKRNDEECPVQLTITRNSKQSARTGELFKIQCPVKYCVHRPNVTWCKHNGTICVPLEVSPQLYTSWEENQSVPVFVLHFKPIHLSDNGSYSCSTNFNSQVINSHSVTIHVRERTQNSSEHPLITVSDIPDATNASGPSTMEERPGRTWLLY
Description: as §1

[4] = biological target: T3, mouse BTLA, soluble protein (analyte of …); assay: Octet bio-layer interferometry, mHVEM-hIgG1 on the sensor, BTLA in solution
Description: as §1

[5] = biological target: T3, mouse BTLA, soluble protein (analyte of …); assay: Octet bio-layer interferometry, mHVEM-hIgG1 on the sensor, mBTLA in solution
Description: (§2) Error bars represent results from at least triplicates. […] Ligands BTLA, CD160 and LIGHT are modeled based on the HVEM structures and are shown as labeled surfaces.
as §1

[6] = biological target: T1, mouse CD160 residues I30-H154 with …; assay: Octet bio-layer interferometry, mHVEM-hIgG1 on the sensor, CD160 in solution
Description: as §1

[7] = biological target: T2, single chain homotrimeric mouse LIGHT …; assay: Octet bio-layer interferometry, mHVEM-hIgG1 on the sensor, LIGHT in solution
Description: as §1

[8] = biological target: T1, mouse CD160 residues I30-H154 with …; assay: Octet bio-layer interferometry, mHVEM-hIgG1 on the sensor, mCD160 in solution
Description: as §2, §1

[9] = biological target: T2, single chain homotrimeric mouse LIGHT …; assay: Octet bio-layer interferometry, mHVEM-hIgG1 on the sensor, mLIGHT in solution
Description: as §2, §1

B1: mouse HVEM (Q39-Q206) H86D-L90A fused to human IgG1 and a hexa-His tag, soluble form (Fc fusion)
chain (part 1 of 2): QPSCRQEEFLVGDECCPMCNPGYHVKQVCSEHTGTVCAPCPPQTYTADANGASKCLPCGVCDPDMGLLTWQECSSWKDTVCRCIPGYFCENQDGSHCSTCLQHTTCPPGQRVEKRGTHDQDTVCADCLTGTFSLGGTQEECLPWTNCSAFQQEVRRGTNSTDTTCSSQ
chain (part 2 of 2): HHHHHH
notes: also called mHVEM^-LIGHT; mHVEM-LIGHT; not shown: human IgG1
fold reduction of binding against wild-type mHVEM [1]: ~3 fold | log-fold decrease in binding against wild-type mHVEM [2]: > 3 log-fold | fold reduction of binding against wild-type mHVEM [3]: ~5 fold | Kd [4]: 5.3 µM | Kd [5]: 5.3 µM | Kd [6]: 33.5 µM | Kd [7]: 31.7 µM | Kd [8]: 33.5 µM | Kd [9]: 31.7 µM
